Tested on: primary mouse OPs
Assay: Proliferation of oligodendrocyte precursor (OP) cultures, scoring NG2+ and NG2+/BrdU+ cells
Format: cell-based
Details: TLQP-21 3 μM, AQEE-30 3 μM, BDNF 50 ng/μl, analyzed 48 hours later, vs DMSO
Method: The growth factor VGF was of particular interest because it is reported to be highly expressed in OPs. Furthermore, its upregulation upon exercise activates the anti-depressant response in mammals, and maintains BDNF expression in a VGF-BDNF positive feedback loop. […] VGF is cleaved to produce numerous C-terminal bioactive peptides including TLQP-62, TLQP-21, and AQEE-30, amongst others. As such, oligodendrocyte precursor (OP) cultures were treated with well-characterized peptides that trigger BDNF production TLQP-21 (3 μM), AQEE-30 (3 μM), BDNF (50 ng/μl), or DMSO along with the proliferation marker BrdU and then analyzed 48 hours later by scoring the number of NG2+/BrdU+ cells. In parallel, the total number of NG2+ cells was counted to assess for endogenous proliferation. […] Indeed, VGF protein levels are robust early in the OP differentiation cascade (FIG. 11).
Mouse OPs were isolated from the cortices of PO WT neonates by expansion within mixed glial culture for 8 days, purified, and subsequently differentiated as an OP-enriched culture. At DIV1 post-purification, cells were treated with DMSO, BDNF, VGF AQEE-30 or VGF TLQP-21 at 3 uM and allowed to grow for an additional 48 hrs. […] DAPI stains all nuclei. […] Scale bar, […]. FIG. 10C depicts quantitation of the average dendritic length 48 hrs post-peptide treatment. **P<0.01, n=4 independent coverslips per condition. […]

B1: BDNF: brain-derived neurotrophic factor, comparison treatment in OP cultures (protein, UniProt P23560 19-247, looked up)
Neurotrophic factor BDNF …: APMKEANIRGQGGLAYPGVRTHGTLESVNGPKAGSRGLTSLADTFEHVIEELLDEDQKVRPNEENNKDADLYTSRVMLSSQVPLEPPLLFLLEEYKNYLDAANMSMRVRRHSDPARRGELSVCDSISEWVTAADKKTAVDMSGGTVTVLEKVPVSKGQLKQYFYETKCNPMGYTKEGCRGIDKRHWNSQCRTTQSYVRALTMDSKKRIGWRFIRIDTSCVCTLTIKRGR
total number of NG2+ cells: no significant differences | total number of proliferating Ng2+/BrdU+ OPs (with BrdU): no significant differences

— patent US20170028021A1, “COMPOSITIONS AND METHODS FOR TREATING NEURODEGENERATIVE DISEASE” (MYELIN THERAPEUTICS, INC., priority 2015, published 2017)
